Test results from article PMC3078644.
pKd: −log10 of the molar value.

Target: Sortilin (immobilised for SPR) (UniProt Q99523)
Experiment: SPR

Sequence of Sortilin (immobilised for SPR) (P20783 whole entry): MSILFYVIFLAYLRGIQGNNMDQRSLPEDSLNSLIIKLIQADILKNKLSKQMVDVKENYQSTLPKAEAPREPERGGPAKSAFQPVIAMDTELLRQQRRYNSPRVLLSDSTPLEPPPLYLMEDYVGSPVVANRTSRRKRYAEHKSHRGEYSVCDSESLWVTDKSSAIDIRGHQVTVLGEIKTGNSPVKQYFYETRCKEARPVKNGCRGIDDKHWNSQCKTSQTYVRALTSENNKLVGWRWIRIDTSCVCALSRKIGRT

## GST-NT3pro (prodomain of proNT3 fused to glutathione-S-transferase) (domain or fragment; other documents disagree on this pair)
  pKd: 7.70
